Measurements published in publication PMC2710387.

B1: Sp1 (-346) unmethylated (Sp1-1) (dsDNA)
DNA 1: TCCACCCTCCGCCCCGCGCCGTCC
DNA 2: GGACGGCGCGGGGCGGAGGGTGGA
B2: Sp1 (-346) methylated (Sp1-1 M) (dsDNA)
DNA 1: TCCACCCTCCGCCCCGCGCCGTCC
DNA 2: GGACGGCGCGGGGCGGAGGGTGGA
modifications: 5-methylcytosine (printed mC): strand 1 C10,C15,C17,C20,C24; strand 2 C4,C7,C9,C14
B3: Sp1 (-268) methylated (Sp1-2 M) (dsDNA)
DNA 1: TTCTCGTCCCCGCCCCGTCCCGCC
DNA 2: GGCGGGACGGGGCGGGGACGAGAA
modifications: 5-methylcytosine (printed mC): strand 1 C5,C11,C16,C21,C24; strand 2 C3,C8,C13,C19
B4: Sp1 (-268) unmethylated (Sp1-2) (dsDNA)
DNA 1: TTCTCGTCCCCGCCCCGTCCCGCC
DNA 2: GGCGGGACGGGGCGGGGACGAGAA

Each binder was assayed against SP1 (recombinant, purified, Promega) (UniProt P08047 2-785) (assay: EMSA).
Sequence of SP1 (recombinant, purified, Promega) (P08047 2-785): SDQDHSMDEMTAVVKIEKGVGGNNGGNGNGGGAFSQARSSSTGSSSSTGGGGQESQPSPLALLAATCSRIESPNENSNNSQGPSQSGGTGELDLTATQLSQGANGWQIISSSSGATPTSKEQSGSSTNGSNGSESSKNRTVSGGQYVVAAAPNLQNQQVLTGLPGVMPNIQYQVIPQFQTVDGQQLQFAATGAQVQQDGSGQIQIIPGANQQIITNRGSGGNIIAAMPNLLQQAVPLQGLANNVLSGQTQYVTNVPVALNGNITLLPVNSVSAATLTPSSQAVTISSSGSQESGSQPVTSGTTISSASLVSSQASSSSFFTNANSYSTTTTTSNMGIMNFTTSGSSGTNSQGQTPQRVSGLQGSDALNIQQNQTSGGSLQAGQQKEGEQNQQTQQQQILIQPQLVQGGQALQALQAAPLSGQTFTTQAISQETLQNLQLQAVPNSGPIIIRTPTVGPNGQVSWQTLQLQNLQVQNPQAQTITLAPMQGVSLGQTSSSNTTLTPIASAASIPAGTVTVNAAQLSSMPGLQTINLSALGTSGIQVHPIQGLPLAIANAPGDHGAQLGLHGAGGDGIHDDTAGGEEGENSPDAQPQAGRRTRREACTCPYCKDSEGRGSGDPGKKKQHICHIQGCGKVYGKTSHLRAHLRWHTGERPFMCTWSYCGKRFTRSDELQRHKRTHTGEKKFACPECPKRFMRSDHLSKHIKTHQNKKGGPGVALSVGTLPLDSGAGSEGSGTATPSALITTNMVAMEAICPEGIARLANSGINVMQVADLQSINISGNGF

Row | Binder | binding result
1 | B1 | binds
2 | B2 | no binding
3 | B3 | no binding
4 | B4 | binds
